The data set deals with the molecule itself. Kind of data set: crystal structure; sitting-drop vapour diffusion at 25°C, 0.1 M HEPES pH 7.5, 10% glycerol, 25% PEG 400, 7% PEG 3000; crystals soaked with 1 mM ISPP and 1 mM GSPP for 6 h; 1.55 Å, space group P212121, one dimer in the asymmetric unit.

B1: Decaprenyl diphosphate synthase from Mycobacterium tuberculosis (enzyme)
chain: MARDARKRTSSNFPQLPPAPDDYPTFPDTSTWPVVFPELPAAPYGGPCRPPQHTSKAAAPRIPADRLPNHVAIVMDGNGRWATQRGLARTEGHKMGEAVVIDIACGAIELGIKWLSLYAFSTENWKRSPEEVRFLMGFNRDVVRRRRDTLKKLGVRIRWVGSRPRLWRSVINELAVAEEMTKSNDVITINYCVNYGGRTEITEATREIAREVAAGRLNPERITESTIARHLQRPDIPDVDLFLRTSGEQRSSNFMLWQAAYAEYIFQDKLWPDYDRRDLWAACEEYASRTRRFGSA
notes: also called MtDPPS; Rv2361c
B1: the stoichiometry N (in general, a count of units in the complex or per binding partner) was determined as 2.

Values taken from publication PMC6450523, “Substrate-analogue complex structure of Mycobacterium tuberculosis decaprenyl diphosphate synthase” (Acta Crystallographica. Section F, Structural Biology …, 2019).
